Measured values taken from patent US20220332804A1 (CSL INNOVATION, published 2022).

What was measured:
Experiment in all cases: SPR; KD relative to WT C2;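 further: biacore SPR at 37 °C, anti-C2 mAbs captured on an anti-human IgG chip, alanine or serine C2 surface mutants tested, KD from 1:1 fit compared with wild-type C2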
human C2 N327A = biological target: T1, human C2 N327A (human, UniProt P06681 21-752)
T1 sequence: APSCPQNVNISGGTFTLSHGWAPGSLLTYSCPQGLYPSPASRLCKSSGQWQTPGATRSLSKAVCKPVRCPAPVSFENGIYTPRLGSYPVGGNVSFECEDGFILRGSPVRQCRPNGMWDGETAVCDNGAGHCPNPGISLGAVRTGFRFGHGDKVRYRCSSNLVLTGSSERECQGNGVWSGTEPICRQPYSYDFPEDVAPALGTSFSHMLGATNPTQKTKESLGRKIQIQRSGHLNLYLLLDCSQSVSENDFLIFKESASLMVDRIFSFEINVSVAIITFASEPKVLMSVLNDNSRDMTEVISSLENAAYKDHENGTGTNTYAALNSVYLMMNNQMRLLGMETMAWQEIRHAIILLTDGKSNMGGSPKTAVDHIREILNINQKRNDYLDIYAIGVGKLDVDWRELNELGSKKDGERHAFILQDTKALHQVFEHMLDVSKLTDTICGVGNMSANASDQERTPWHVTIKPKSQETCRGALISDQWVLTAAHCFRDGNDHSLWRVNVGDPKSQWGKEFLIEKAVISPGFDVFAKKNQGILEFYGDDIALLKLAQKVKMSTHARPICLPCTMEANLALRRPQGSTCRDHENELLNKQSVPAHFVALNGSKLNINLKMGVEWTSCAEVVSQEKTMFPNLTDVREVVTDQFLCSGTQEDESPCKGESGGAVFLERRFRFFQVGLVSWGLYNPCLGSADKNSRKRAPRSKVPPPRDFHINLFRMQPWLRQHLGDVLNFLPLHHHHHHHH

human C2 Y328A = biological target: T2, human C2 Y328A (human, UniProt P06681 21-752)
T2 sequence: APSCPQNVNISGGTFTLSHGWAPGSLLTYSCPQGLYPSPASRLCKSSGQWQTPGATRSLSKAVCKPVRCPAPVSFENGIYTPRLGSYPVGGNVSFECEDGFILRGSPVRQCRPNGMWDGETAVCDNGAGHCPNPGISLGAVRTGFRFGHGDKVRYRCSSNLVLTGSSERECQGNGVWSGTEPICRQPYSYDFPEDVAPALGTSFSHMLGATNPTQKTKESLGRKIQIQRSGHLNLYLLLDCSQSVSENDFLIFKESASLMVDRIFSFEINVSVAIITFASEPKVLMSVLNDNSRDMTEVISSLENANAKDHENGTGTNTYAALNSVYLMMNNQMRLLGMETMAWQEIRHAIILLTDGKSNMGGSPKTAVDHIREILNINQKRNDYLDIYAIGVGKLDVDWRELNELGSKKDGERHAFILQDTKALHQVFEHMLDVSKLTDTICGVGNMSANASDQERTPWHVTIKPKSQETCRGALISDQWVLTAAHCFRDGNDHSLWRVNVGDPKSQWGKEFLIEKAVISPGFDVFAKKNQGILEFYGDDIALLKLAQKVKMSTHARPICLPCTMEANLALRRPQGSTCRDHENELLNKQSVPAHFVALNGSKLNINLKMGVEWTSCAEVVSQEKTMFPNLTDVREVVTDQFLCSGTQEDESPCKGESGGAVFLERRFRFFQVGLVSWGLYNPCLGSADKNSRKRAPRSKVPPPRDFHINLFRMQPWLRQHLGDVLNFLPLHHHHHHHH

human C2 A436S = biological target: T3, human C2 A436S (human, UniProt P06681 21-752)
T3 sequence: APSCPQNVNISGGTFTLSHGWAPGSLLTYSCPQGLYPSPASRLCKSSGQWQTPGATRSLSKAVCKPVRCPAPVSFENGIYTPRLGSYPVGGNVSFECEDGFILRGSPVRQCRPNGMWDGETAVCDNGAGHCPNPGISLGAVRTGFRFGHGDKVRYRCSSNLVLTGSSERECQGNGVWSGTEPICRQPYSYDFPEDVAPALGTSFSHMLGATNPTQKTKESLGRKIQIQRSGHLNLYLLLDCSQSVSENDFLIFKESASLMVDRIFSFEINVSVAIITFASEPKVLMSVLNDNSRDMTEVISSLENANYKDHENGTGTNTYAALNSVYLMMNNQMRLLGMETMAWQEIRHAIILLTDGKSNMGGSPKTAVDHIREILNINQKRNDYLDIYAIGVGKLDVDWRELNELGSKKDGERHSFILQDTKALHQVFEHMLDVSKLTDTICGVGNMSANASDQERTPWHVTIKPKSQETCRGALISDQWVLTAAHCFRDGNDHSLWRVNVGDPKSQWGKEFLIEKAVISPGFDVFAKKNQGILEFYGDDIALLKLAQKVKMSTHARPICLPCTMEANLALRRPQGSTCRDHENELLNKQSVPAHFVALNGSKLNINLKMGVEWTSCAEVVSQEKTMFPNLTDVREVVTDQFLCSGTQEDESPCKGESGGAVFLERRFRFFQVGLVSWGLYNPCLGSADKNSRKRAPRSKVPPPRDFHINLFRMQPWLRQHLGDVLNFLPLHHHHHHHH

human C2 D441A = biological target: T4, human C2 D441A (human, UniProt P06681 21-752)
T4 sequence: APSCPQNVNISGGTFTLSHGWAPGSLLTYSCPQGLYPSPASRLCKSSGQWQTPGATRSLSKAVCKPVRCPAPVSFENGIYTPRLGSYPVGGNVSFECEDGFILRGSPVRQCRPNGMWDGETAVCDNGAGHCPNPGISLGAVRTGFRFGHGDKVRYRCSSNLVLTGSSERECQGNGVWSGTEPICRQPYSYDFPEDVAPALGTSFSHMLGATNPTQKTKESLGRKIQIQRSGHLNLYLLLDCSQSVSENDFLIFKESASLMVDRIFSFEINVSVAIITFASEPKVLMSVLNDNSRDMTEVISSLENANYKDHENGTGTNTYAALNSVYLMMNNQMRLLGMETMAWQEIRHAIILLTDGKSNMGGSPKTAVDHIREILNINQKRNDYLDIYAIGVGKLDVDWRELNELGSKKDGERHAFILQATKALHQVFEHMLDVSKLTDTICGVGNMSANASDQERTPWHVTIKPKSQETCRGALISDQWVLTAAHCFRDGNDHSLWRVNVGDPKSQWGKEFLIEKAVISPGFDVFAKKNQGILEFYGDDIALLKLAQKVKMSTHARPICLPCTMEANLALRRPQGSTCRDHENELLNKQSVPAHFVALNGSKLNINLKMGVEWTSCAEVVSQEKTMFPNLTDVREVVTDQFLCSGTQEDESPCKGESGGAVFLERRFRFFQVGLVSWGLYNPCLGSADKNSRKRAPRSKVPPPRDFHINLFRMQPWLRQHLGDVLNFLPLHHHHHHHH

B1: RF16-214 (antibody, V domains shown)
VH: EVQLLESGGGLVQPGGSLRLSCAASGFTFSWYQMMWVRQAPGKGLEWVSRIYPSGGGTAYADSVKGRFTISRDNSKNTLYLQMNSLRAEDTAVYYCARDAGYGDNWGQGTLVTVSS
VL: QSALTQPPSVSVSPGQTASITCSGDKLGEKYASWYQQKAGQSPVMVIYQDRKRPSGIPERFSGSNSGNTATLTISGTQAMDEADYYCQAWDTRAVVFGGGTKLTVLG
Human C2 N327A
  Fold diff: 7 fold
Human C2 Y328A
  Fold diff: 6 fold
Human C2 A436S
  Fold diff: 1 fold
Human C2 D441A
  Fold diff: 2 fold
